The subject of the assay is mouse leukemia L1210 cells. Put plainly: Gene transfer with PM5neo virus on coated plates, G418-resistant cells by WST-1 absorbance. In kind it is cell-based. The settings on record: for Absorbance difference (450 nm-650 nm), G418-resistant cells: Experiment 2. On the procedure:
50 μl of […] solution of H-271, H-296, C-274, CH-271, CH-296, ColV, human basic fibroblast growth factor (bFGF; Progen), tenascin (Gibco) or epidermal growth factor (EGF; Takara Shuzo), or 50 μl of 2% bovine serum albumin (BSA, Sigma) was added to each well of a 96-well non-treated microplate for cell culture (Falcon). The plate was allowed to stand at 4° C. overnight and then washed twice with phosphate buffered saline (PBS; Roman Kogyo). Alternatively, after the plate was treated as described above, 0.1 ml of 4 mg/ml solution of 1-ethyl-3-dimethylaminopropylcarbodiimide hydrochloride (Sigma) in sterile pure water was dispensed to each well. The reaction was allowed to proceed at 37° C. for 2 hours. The plate was washed extensively with pure water to prepare a carbodiimide-treated plate. These plates were stored at 4° C. until viral infection experiments were conducted.
10^4 mouse leukemia L1210 cells (ATCC CCL-219), which had been grown in RPMI 1640 medium (Bio Whittaker) supplemented with 10% FCS, 50 units/ml penicillin and 50 μg/ml streptomycin, and 50 μl of PM5neo virus supernatant (10^4 cfu/ml) were added to the well of the microplate. After the plate was incubated for 24 hours, the medium was changed to the same medium containing G418 (Gibco) at a final concentration of 0.75 mg/ml, and the plate was then incubated for additional 48 hours. G418-resistance cells were assessed according to the method as described in S. Kim et al. [Gene Therapy, 3:1018-1020 (1996)] with a partial modification in which color developed using Premix WST-1 reagent (Takara Shuzo) was measured as absorbance at 450 nm. […] Absorbance at 450 nm and 650 nm was then measured using a microplate reader, and the difference (450 nm-650 nm) was calculated. The value obtained using a plate coated with 2% BSA without carbodiimide treatment was defined as background.
For orientation: Tetrazolium dyes change colour on reduction, which living cells bring about.

Data on one molecule can be found in patent publication US6787359B1, “Gene transfer methods” (Takara Shuzo Co., Ltd., priority 1998, dated 2004).

B1: EGF: epidermal growth factor (Takara Shuzo) (protein, UniProt P01133 23-1207, looked up)
Pro-epidermal growth factor: PQHWSCPEGTLAGNGNSTCVGPAPFLIFSHGNSIFRIDTEGTNYEQLVVDAGVSVIMDFHYNEKRIYWVDLERQLLQRVFLNGSRQERVCNIEKNVSGMAINWINEEVIWSNQQEGIITVTDMKGNNSHILLSALKYPANVAVDPVERFIFWSSEVAGSLYRADLDGVGVKALLETSEKITAVSLDVLDKRLFWIQYNREGSNSLICSCDYDGGSVHISKHPTQHNLFAMSLFGDRIFYSTWKMKTIWIANKHTGKDMVRINLHSSFVPLGELKVVHPLAQPKAEDDTWEPEQKLCKLRKGNCSSTVCGQDLQSHLCMCAEGYALSRDRKYCEDVNECAFWNHGCTLGCKNTPGSYYCTCPVGFVLLPDGKRCHQLVSCPRNVSECSHDCVLTSEGPLCFCPEGSVLERDGKTCSGCSSPDNGGCSQLCVPLSPVSWECDCFPGYDLQLDEKSCAASGPQPFLLFANSQDIRHMHFDGTDYGTLLSQQMGMVYALDHDPVENKIYFAHTALKWIERANMDGSQRERLIEEGVDVPEGLAVDWIGRRFYWTDRGKSLIGRSDLNGKRSKIITKENISQPRGIAVHPMAKRLFWTDTGINPRIESSSLQGLGRLVIASSDLIWPSGITIDFLTDKLYWCDAKQSVIEMANLDGSKRRRLTQNDVGHPFAVAVFEDYVWFSDWAMPSVMRVNKRTGKDRVRLQGSMLKPSSLVVVHPLAKPGADPCLYQNGGCEHICKKRLGTAWCSCREGFMKASDGKTCLALDGHQLLAGGEVDLKNQVTPLDILSKTRVSEDNITESQHMLVAEIMVSDQDDCAPVGCSMYARCISEGEDATCQCLKGFAGDGKLCSDIDECEMGVPVCPPASSKCINTEGGYVCRCSEGYQGDGIHCLDIDECQLGEHSCGENASCTNTEGGYTCMCAGRLSEPGLICPDSTPPPHLREDDHHYSVRNSDSECPLSHDGYCLHDGVCMYIEALDKYACNCVVGYIGERCQYRDLKWWELRHAGHGQQQKVIVVAVCVVVLVMLLLLSLWGAHYYRTQKLLSKNPKNPYEESSRDVRSRRPADTEDGMSSCPQPWFVVIKEHQDLKNGGQPVAGEDGQAADGSMQPTSWRQEPQLCGMGTEQGCWIPVSSDKGSCPQVMERSFHMPSYGTQTLEGGVEKPHSLLSANPLWQQRALDPPHQMELTQ
modifications: Pro-epidermal growth factor
With B1, the “Absorbance difference (450 nm-650 nm), G418-resistant cells” value is reported as 0.077 ± 0.038 (plate treated with carbodiimide) and 0.030 ± 0.021 (plate untreated). Further, the “Appearance of G418-resistant cells (in words)” value (carbodiimide treatment carried out) is “increased”.
